The text below walks through data of the Immune Epitope Database (IEDB).

Among the targets are HLA-A*02:02; HLA-A*02:03; HLA-A*02:06.
Holding throughout (assay): IEDB peptide-MHC binding, purified MHC/competitive/radioactivity; filed as Kd, often an IC50 or EC50 that approximates it; ≥ and ≤ were set here for values at or beyond the usual limits of such assays
The target in the next experiment is HLA-A*03:01. The settings on record: source organism: Vaccinia virus WR.
For the next experiment, the target named is HLA-A*68:01. The settings on record: source organism: Vaccinia virus WR.
The next experiment deals with HLA-A*33:01. The settings on record: source organism: Vaccinia virus WR.
A further experiment has as its target HLA-A*11:01. The note with it: source organism: Vaccinia virus WR.
The target in a further experiment is HLA-A*31:01. The note with it: source organism: Vaccinia virus WR.
[1] abbreviates: source organism: Vaccinia virus WR.
[2] abbreviates: source organism: Lassa virus Josiah.
Setting [3] is: source organism: Lymphocytic choriomeningitis virus (strain Armstrong).
Where [4] appears, read: source organism: SARS coronavirus Tor2.

Regarding CLLTDTIESA, the Kd with HLA-A*02:02 (setting [1]) is 53 nM; with HLA-A*02:03 (setting [1]), 102 nM; with HLA-A*02:06 (setting [1]), 92.1 nM.
Take YCSNIKLQVV: the Kd with HLA-A*02:02 (setting [2]) worked out at 1230 nM; in the experiment with HLA-A*02:03 (setting [2]), 801 nM; with HLA-A*02:06 (setting [2]) it was 7120 nM.
For the sequence TVKNVDIIDL, the results for the Kd with HLA-A*02:02 (setting [1]), with HLA-A*02:03 (setting [1]) and with HLA-A*02:06 (setting [1]) were no less than 31300 nM, 8310 nM and 12400 nM, respectively.
For AAKTPVIVV, the Kd is 1360 nM in the experiment with HLA-A*02:02 (setting [1]), 1630 nM in the experiment with HLA-A*02:03 (setting [1]) and no less than 25400 nM with HLA-A*02:06 (setting [1]).
As for IIYSKAGNIL, the Kd was determined as 8.48 nM with HLA-A*02:02 (setting [1]), 110 nM with HLA-A*02:03 (setting [1]) and 342 nM in the experiment with HLA-A*02:06 (setting [1]).
Turning to NTVGMSIVCI, the results for the Kd in the experiment with HLA-A*02:02 (setting [1]), in the experiment with HLA-A*02:03 (setting [1]) and with HLA-A*02:06 (setting [1]) were 3020 nM, 1540 nM and 1210 nM, respectively.
For NITPDDGLGL, in that order: 1910 nM, 1290 nM and 3450 nM.
CVKYLLDNDI: the Kd with HLA-A*02:02 (setting [1]) was no less than 31800 nM; with HLA-A*02:03 (setting [1]) it was 5670 nM; with HLA-A*02:06 (setting [1]), 7580 nM.
Consider LLENKSLTIL, for which the Kd with HLA-A*02:02 (setting [1]) is 185 nM; with HLA-A*02:03 (setting [1]) it was 541 nM; with HLA-A*02:06 (setting [1]), 7430 nM.
As to VIKLVKSLV, the Kd in the experiment with HLA-A*02:02 (setting [1]) was 1030 nM; in the experiment with HLA-A*02:03 (setting [1]), 126 nM; with HLA-A*02:06 (setting [1]), 4120 nM.
With AARLKRSAT, the dissociation constant (Kd) with HLA-A*02:02 (setting [1]) was 12500 nM; with HLA-A*02:03 (setting [1]), 10500 nM; with HLA-A*02:06 (setting [1]) it was no less than 63400 nM.
Turning to SANMDWRSLT, the figures for the Kd in the experiment with HLA-A*02:02 (setting [1]), with HLA-A*02:03 (setting [1]) and with HLA-A*02:06 (setting [1]) were 1790 nM, 11300 nM and no less than 48000 nM, respectively.
Consider GLDERFVEEL, for which the Kd came to 93 nM in the experiment with HLA-A*02:02 (setting [1]), 1210 nM with HLA-A*02:03 (setting [1]) and 2520 nM in the experiment with HLA-A*02:06 (setting [1]).
As to YAGTIKESLL, the Kd with HLA-A*02:02 (setting [1]) is 1020 nM; with HLA-A*02:03 (setting [1]), 4040 nM; with HLA-A*02:06 (setting [1]), 1770 nM.
In the case of ETAIRAGYSI, the Kd is no less than 25800 nM with HLA-A*02:02 (setting [1]), no less than 29300 nM in the experiment with HLA-A*02:03 (setting [1]) and 17800 nM with HLA-A*02:06 (setting [1]).
In the case of NVFISPASI, the Kd with HLA-A*02:02 (setting [1]) stood at 202 nM; in the experiment with HLA-A*02:03 (setting [1]) it was 0.727 nM; in the experiment with HLA-A*02:06 (setting [1]) it was 660 nM.
With NTDHPLSINV, the Kd was 388 nM in the experiment with HLA-A*02:02 (setting [1]), 583 nM with HLA-A*02:03 (setting [1]) and 1.64 nM in the experiment with HLA-A*02:06 (setting [1]).
With LATLNTLITL, the Kd with HLA-A*02:02 (setting [1]) turned out to be 139 nM; in the experiment with HLA-A*02:03 (setting [1]), 338 nM; with HLA-A*02:06 (setting [1]) it was 323 nM.
As for ALCESITLA, the dissociation constant Kd with HLA-A*02:03 (source organism: Dengue virus 1 Brazil/97-11/1997) came out at 17.3 nM.
As for LSAEELMSL, the Kd with HLA-A*02:02 (setting [3]) amounted to 64.5 nM; in the experiment with HLA-A*02:03 (setting [3]) it was 705 nM; with HLA-A*02:06 (setting [3]) it was 65.9 nM.
Regarding TQLFKYVPSA, the Kd in the experiment with HLA-A*02:02 (setting [1]) was no less than 70000 nM; in the experiment with HLA-A*02:03 (setting [1]), no less than 70400 nM; in the experiment with HLA-A*02:06 (setting [1]) it was no less than 69800 nM.
Consider RISSSLDQT, for which the Kd with HLA-A*02:02 (setting [1]) is 6790 nM; with HLA-A*02:03 (setting [1]), 12800 nM; in the experiment with HLA-A*02:06 (setting [1]) it was no less than 27800 nM.
For IVAALVFLI, the Kd is 0.138 nM with HLA-A*02:02 (setting [4]), 15.5 nM in the experiment with HLA-A*02:03 (setting [4]) and 1.81 nM in the experiment with HLA-A*02:06 (setting [4]).
On to GLKALYETEL, for which the Kd with HLA-A*02:06 (source organism: Homo sapiens) is no less than 71200 nM.
Consider YAAEMVEYL, for which the Kd came out at 0.524 nM with HLA-A*02:02 (setting [1]), 2.07 nM with HLA-A*02:03 (setting [1]) and 11.8 nM in the experiment with HLA-A*02:06 (setting [1]).
On to RTLILAPTRV, for which the Kd with HLA-A*02:06 (source organism: Dengue virus 2 Jamaica/1409/1983) is 466 nM.
Turning to VLSIPPTAGI, the Kd with HLA-A*02:03 (source organism: Dengue virus 4 Philippines/H241/1956) turned out to be 226 nM.
For the sequence SFLRKIGDK, the Kd with HLA-A*03:01 was 7600 nM; in the experiment with HLA-A*68:01 it was no less than 35000 nM; with HLA-A*33:01, no less than 26200 nM; in the experiment with HLA-A*11:01, 3930 nM; with HLA-A*31:01, 247 nM.
For the sequence ISDNKKEYK, the Kd is 1990 nM with HLA-A*03:01; 3420 nM with HLA-A*68:01; 10500 nM with HLA-A*33:01; 359 nM with HLA-A*11:01; 1820 nM with HLA-A*31:01.
Consider KIDKLTFQIY, for which the Kd with HLA-A*03:01 stood at 1270 nM; in the experiment with HLA-A*68:01, 1480 nM; in the experiment with HLA-A*33:01, 13000 nM; with HLA-A*11:01, 17500 nM; with HLA-A*31:01, 3410 nM.
For YSISNDLLY, in that order: 1190 nM, 2310 nM, no less than 65500 nM, 337 nM and 249 nM.
As for NAKVGDDVK, the Kd with HLA-A*03:01 was no less than 78000 nM; with HLA-A*68:01, 478 nM; with HLA-A*33:01, 16900 nM; with HLA-A*11:01 it was 389 nM; with HLA-A*31:01 it was 10100 nM.
As to IAHINTLIQY, the Kd with HLA-A*03:01 turned out to be 383 nM; in the experiment with HLA-A*68:01, 1510 nM; in the experiment with HLA-A*33:01, 6860 nM; with HLA-A*11:01, 975 nM; with HLA-A*31:01, 8780 nM.

Usually Kd stands for the concentration at which binding is half-saturated.
